Patent US20180120332A1 (CLEMSON UNIVERSITY RESEARCH FOUNDATION, published 2018)
Ends that are not written are not given here.

B1: RGDSP peptide (peptide)
peptide: RGDSP
modifications: also: N-terminus conjugated to oxidized alginate (EDC-NHS) or methacrylated and co-polymerized with PEGDA
B2: α1 peptide (TFALRGDNP), RGD peptide derived from laminin α1 subunit (peptide)
peptide: TFALRGDNP
modifications: also: N-terminus conjugated to oxidized alginate (EDC-NHS) or methacrylated and co-polymerized with PEGDA
B3: RGDS peptide (peptide)
peptide: RGDS
modifications: also: N-terminus conjugated to oxidized alginate (EDC-NHS) or methacrylated and co-polymerized with PEGDA

biological target: αvβ3 integrin on human umbilical vein endothelial cells (HUVECs) (human, UniProt P06756 31-1048; P05106 27-788); experiment: cell-based or functional assay
Sequence (P06756 31-1048, chain 1 of 2): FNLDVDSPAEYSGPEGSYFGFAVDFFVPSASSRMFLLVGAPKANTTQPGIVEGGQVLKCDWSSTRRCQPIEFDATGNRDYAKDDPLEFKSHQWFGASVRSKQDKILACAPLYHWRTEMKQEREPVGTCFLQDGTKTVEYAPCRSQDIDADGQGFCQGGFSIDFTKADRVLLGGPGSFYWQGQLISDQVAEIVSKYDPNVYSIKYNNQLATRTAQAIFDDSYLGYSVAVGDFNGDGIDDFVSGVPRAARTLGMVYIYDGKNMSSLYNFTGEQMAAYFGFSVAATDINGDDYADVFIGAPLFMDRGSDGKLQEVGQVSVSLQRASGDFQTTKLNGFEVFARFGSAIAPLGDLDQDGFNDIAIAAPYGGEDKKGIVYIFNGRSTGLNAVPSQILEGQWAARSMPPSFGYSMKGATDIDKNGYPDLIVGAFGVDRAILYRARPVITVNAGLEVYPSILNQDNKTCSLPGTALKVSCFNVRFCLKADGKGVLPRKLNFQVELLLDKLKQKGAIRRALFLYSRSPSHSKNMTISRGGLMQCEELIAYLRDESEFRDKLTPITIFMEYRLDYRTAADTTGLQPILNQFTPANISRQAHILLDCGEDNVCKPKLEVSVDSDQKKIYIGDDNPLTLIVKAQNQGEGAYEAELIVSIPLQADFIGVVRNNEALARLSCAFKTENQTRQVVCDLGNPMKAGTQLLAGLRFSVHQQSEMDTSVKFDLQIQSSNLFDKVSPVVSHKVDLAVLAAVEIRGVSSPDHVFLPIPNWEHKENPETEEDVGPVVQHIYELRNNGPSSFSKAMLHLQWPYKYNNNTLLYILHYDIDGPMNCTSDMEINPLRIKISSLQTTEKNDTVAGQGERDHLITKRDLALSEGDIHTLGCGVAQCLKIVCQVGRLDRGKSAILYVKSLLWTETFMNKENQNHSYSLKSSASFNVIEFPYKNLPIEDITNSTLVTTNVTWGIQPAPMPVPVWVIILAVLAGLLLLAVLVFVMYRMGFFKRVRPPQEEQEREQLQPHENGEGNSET
Sequence (P05106 27-788, chain 2 of 2): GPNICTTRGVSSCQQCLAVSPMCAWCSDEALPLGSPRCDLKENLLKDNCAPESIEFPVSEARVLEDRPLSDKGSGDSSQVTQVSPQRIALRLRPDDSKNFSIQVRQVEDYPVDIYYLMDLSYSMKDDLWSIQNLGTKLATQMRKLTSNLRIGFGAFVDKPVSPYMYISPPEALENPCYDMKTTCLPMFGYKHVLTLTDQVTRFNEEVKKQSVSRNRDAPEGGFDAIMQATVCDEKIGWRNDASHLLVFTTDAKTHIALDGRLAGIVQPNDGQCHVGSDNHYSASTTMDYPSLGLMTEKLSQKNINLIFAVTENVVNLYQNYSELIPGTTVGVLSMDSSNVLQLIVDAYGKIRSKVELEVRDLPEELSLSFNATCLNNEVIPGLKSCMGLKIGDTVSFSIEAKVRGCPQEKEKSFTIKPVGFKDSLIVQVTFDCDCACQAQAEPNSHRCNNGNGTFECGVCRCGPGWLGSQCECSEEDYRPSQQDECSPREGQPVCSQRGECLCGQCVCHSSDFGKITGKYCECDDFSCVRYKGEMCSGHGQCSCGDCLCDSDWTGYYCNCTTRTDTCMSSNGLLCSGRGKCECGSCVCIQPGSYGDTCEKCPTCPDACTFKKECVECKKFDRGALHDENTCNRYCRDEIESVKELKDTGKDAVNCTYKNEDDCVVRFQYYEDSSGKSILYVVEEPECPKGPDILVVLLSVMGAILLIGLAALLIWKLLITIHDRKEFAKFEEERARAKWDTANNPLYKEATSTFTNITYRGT

decrease in HUVEC adhesion on peptide functionalized alginate when αvβ3 integrin is blocked [%]	Binder
~35	B1
~60	B2
~35	B3
